B1: CPEB3 Ribozyme (parent)
chain: UAACAGGGGGCCACAGCAGAAGCGUUCACGUCGCAGCCCCUGUCAGAUUCUGGUGAAUCUGCGAAUUCUGCUGUAUAUCUC

Variants of: B1
Test: self-cleavage, relative activity (ratio to wild type); higher = more cleavage; in vitro, sequencing
Method in brief: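 For each CPEB3 ribozyme variant, relative activity is its cleaved/total read fraction divided by the unmutated ribozyme's. Barcoded error-prone PCR libraries were transcribed by T7 RNA polymerase (5 hours, 37°C) and held in DNase I for 15 min before an EDTA stop, with cleavage occurring throughout. Template-switching reverse transcription and Illumina sequencing were used to read the RNAs. A 5-read minimum applied, and results are the mean of three batches.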

Question: For UAACAGGGGGCCACAGCAGAAGCGUUCACGUCGCAGCCCCUGACAGAUUCUGGUGAAUCUGCGAAUCCUGCUGUAUAUCUC [U43A U67C], which self-cleavage is on record?
Answer: 0.33

Question: Which self-cleavage does the source give for UAACAGGGGGCCACAGCAGAAGCGUUCACGUCGCAGCCCCUGACAGAUUCUGGUGAAUCUGCGAAUACUGCUGUAUAUCUC [U43A U67A] here?
Answer: 0.83

Question: With UAACAGGGGGCCACAGCAGAAGCGUUCACGUCGCAGCCCCUGACAGAUUCUGGUGAAUCUGCGAAUUCUGCUGCAUAUCUC [U43A U74C] as the variant, how does the self-cleavage read?
Answer: 1.24

Question: Which self-cleavage does the source give for UAACAGGGGGCCACAGCAGAAGCGUUCACGUCGCAGCCCCUGACAGAUUCUGGUGAAUCUGCGAAUUCUGCUGAAUAUCUC [U43A U74A] here?
Answer: 1.35

Question: Which self-cleavage does the source give for UAACAGGGGGCCACAGCAGAAGCGUUCACGUCGCAGCCCCUGCCAGAUUCUGGUGAAUCUGCGAAUUCUGCUGUAUAUCUC [U43C] here?
Answer: 0.67

Question: With UAACAGGGGGCCACAGCAGAAGCGUUCACGUCGCAGCCCCUGCCAGAUUCUGGUGAUUCUGCGAAUUCUGCUGUAUAUCUC [U43C A57U] as the variant, how does the self-cleavage read?
Answer: 0.22

Question: Which self-cleavage does the source give for UAACAGGGGGCCACAGCAGAAGCGUUCACGUCGCAGCCCCUGCCAGAUUCUGGUGAGUCUGCGAAUUCUGCUGUAUAUCUC [U43C A57G] here?
Answer: 0.3

Question: Which self-cleavage does the source give for UAACAGGGGGCCACAGCAGAAGCGUUCACGUCGCAGCCCCUGCCAGUUUCUGGUGAAUCUGCGAAUUCUGCUGUAUAUCUC [U43C A47U] here?
Answer: 0.39

Question: With UAACAGGGGGCCACAGCAGAAGCGUUCACGUCGCAGCCCCUGCCAGCUUCUGGUGAAUCUGCGAAUUCUGCUGUAUAUCUC [U43C A47C] as the variant, how does the self-cleavage read?
Answer: 0.06

Question: With UAACAGGGGGCCACAGCAGAAGCGUUCACGUCGCAGCCCCUGCCAGGUUCUGGUGAAUCUGCGAAUUCUGCUGUAUAUCUC [U43C A47G] as the variant, how does the self-cleavage read?
Answer: 0.58

Question: For UAACAGGGGGCCACAGCAGAAGCGUUCACGUCGCAGCCCCUGCCAGAUUCUGGUGGAUCUGCGAAUUCUGCUGUAUAUCUC [U43C A56G], which self-cleavage is on record?
Answer: 0.33

Question: With UAACAGGGGGCCACAGCAGAAGCGUUCACGUCGCAGCCCCUGCCAGAUUCUGGUGCAUCUGCGAAUUCUGCUGUAUAUCUC [U43C A56C] as the variant, how does the self-cleavage read?
Answer: 0.18

Question: Which self-cleavage does the source give for UAACAGGGGGCCACAGCAGAAGCGUUCACGUCGCAGCCCCUGCCAGAUUCUGGUGUAUCUGCGAAUUCUGCUGUAUAUCUC [U43C A56U] here?
Answer: 0.26

Question: With UAACAGGGGGCCACAGCAGAAGCGUUCACGUCGCAGCCCCUGCCAGAUUCUGGUGAAUCUGCGUAUUCUGCUGUAUAUCUC [U43C A64U] as the variant, how does the self-cleavage read?
Answer: 0.29

Question: For UAACAGGGGGCCACAGCAGAAGCGUUCACGUCGCAGCCCCUGCCAGAUUCUGGUGAAUCUGCGGAUUCUGCUGUAUAUCUC [U43C A64G], which self-cleavage is on record?
Answer: 0.51

Question: Which self-cleavage does the source give for UAACAGGGGGCCACAGCAGAAGCGUUCACGUCGCAGCCCCUGACAGAUUCUGGUGAAUCUGCGAAUUCUGCUGUAUACCUC [U43A U78C] here?
Answer: 1.13

Question: For UAACAGGGGGCCACAGCAGAAGCGUUCACGUCGCAGCCCCUGACAGAUUCUGGUGAAUCUGCGAAUUCUGCUGUAUAGCUC [U43A U78G], which self-cleavage is on record?
Answer: 1.29

Question: For UAACAGGGGGCCACAGCAGAAGCGUUCACGUCGCAGCCCCUGACAGAUUCUGGUGAAUCUGCGAAUUCUGCUGUAUAACUC [U43A U78A], which self-cleavage is on record?
Answer: 1.29

Question: Which self-cleavage does the source give for UAACAGGGGGCCACAGCAGAAGCGUUCACGUCGCAGCCCCUGCCAGAUUCUGGUGAAUCUGCGAUUUCUGCUGUAUAUCUC [U43C A65U] here?
Answer: 0.19

Question: For UAACAGGGGGCCACAGCAGAAGCGUUCACGUCGCAGCCCCUGCCAGAUUCUGGUGAAUCUGCGAGUUCUGCUGUAUAUCUC [U43C A65G], which self-cleavage is on record?
Answer: 0.31

Question: With UAACAGGGGGCCACAGCAGAAGCGUUCACGUCGCAGCCCCUGACAGAUUCUGGUGAAUCUGCGAAUUCAGCUGUAUAUCUC [U43A U69A] as the variant, how does the self-cleavage read?
Answer: 0.79

Question: With UAACAGGGGGCCACAGCAGAAGCGUUCACGUCGCAGCCCCUGACAGAUUCUGGUGAAUCUGCGAAUUCCGCUGUAUAUCUC [U43A U69C] as the variant, how does the self-cleavage read?
Answer: 0.72

Question: Which self-cleavage does the source give for UAACAGGGGGCCACAGCAGAAGCGUUCACGUCGCAGCCCCUGACAGAUUCUGGUGAAUCUGCGAAUUCGGCUGUAUAUCUC [U43A U69G] here?
Answer: 0.82

Question: With UAACAGGGGGCCACAGCAGAAGCGUUCACGUCGCAGCCCCUGACAGAUUCUGGUGAAUCUGCGAAUUCUGCUGUAAAUCUC [U43A U76A] as the variant, how does the self-cleavage read?
Answer: 1.23

Question: With UAACAGGGGGCCACAGCAGAAGCGUUCACGUCGCAGCCCCUGACAGAUUCUGGUGAAUCUGCGAAUUCUGCUGUACAUCUC [U43A U76C] as the variant, how does the self-cleavage read?
Answer: 1.14

Question: Which self-cleavage does the source give for UAACAGGGGGCCACAGCAGAAGCGUUCACGUCGCAGCCCCUGACAGAUUCUGGUGAAUCUGCGAAUUCUGCAGUAUAUCUC [U43A U72A] here?
Answer: 0.71

Question: For UAACAGGGGGCCACAGCAGAAGCGUUCACGUCGCAGCCCCUGACAGAUUCUGGUGAAUCUGCGAAUUCUGCCGUAUAUCUC [U43A U72C], which self-cleavage is on record?
Answer: 1.17

Question: Which self-cleavage does the source give for UAACAGGGGGCCACAGCAGAAGCGUUCACGUCGCAGCCCCUGACAGAUUCUGGUGAAUCUGCGAAUUCUGCGGUAUAUCUC [U43A U72G] here?
Answer: 1.02

Question: For UAACAGGGGGCCACAGCAGAAGCGUUCACGUCGCAGCCCCUGCCAGAUUCUGGUGAAUCUGCGAAUUCUGCUGUCUAUCUC [U43C A75C], which self-cleavage is on record?
Answer: 0.84

Question: For UAACAGGGGGCCACAGCAGAAGCGUUCACGUCGCAGCCCCUGACAGAUUCUGGUGAAUCUGCGAAUUCUGCUGUAUAUCCC [U43A U80C], which self-cleavage is on record?
Answer: 1.15

Question: Which self-cleavage does the source give for UAACAGGGGGCCACAGCAGAAGCGUUCACGUCGCAGCCCCUGACAGAUUCUGGUGAAUCUGCGAAUUCUGCUGUAUAUCAC [U43A U80A] here?
Answer: 1.22

Question: For UAACAGGGGGCCACAGCAGAAGCGUUCACGUCGCAGCCCCUGCCGGAUUCUGGUGAAUCUGCGAAUUCUGCUGUAUAUCUC [U43C A45G], which self-cleavage is on record?
Answer: 0.5

Question: For UAACAGGGGGCCACAGCAGAAGCGUUCACGUCGCAGCCCCUGCCCGAUUCUGGUGAAUCUGCGAAUUCUGCUGUAUAUCUC [U43C A45C], which self-cleavage is on record?
Answer: 0.3

Question: For UAACAGGGGGCCACAGCAGAAGCGUUCACGUCGCAGCCCCUGCCUGAUUCUGGUGAAUCUGCGAAUUCUGCUGUAUAUCUC [U43C A45U], which self-cleavage is on record?
Answer: 0.3

Source: the RNAGym collection of RNA variant scans (doi:10.1093/nar/gkz1192)
